In paper PMC4652773, “Functional significance of protein assemblies predicted by the crystal structure of the restriction endonuclease BsaWI”:

Columns and labels:
Assay in all cases: EMSA; 5 mM Ca2+; EMSA: 40 mM Tris-acetate pH 8.3, 0.1 mg/ml BSA, 10% glycerol, 5 mM CaCl2 or 0.1 mM EDTA, 1 nM DNA, room temperature, 15 min
BsaWI D145A = molecular target: T1, BsaWI D145A (UniProt Q6UQ65 1-272, D145A); conditions: protein: recombinant; chain copies: 4; label: 33P; blunt
T1 sequence: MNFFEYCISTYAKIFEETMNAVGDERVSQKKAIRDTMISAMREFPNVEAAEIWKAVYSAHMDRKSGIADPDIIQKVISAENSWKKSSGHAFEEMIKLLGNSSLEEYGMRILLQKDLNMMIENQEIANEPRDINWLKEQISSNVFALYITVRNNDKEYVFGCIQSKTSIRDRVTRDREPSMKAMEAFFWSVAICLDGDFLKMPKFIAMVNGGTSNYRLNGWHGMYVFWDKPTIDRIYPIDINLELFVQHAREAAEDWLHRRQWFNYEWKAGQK

BsaWI W262A = molecular target: T2, BsaWI W262A (UniProt Q6UQ65 1-272, W262A); conditions: protein: recombinant; chain copies: 2; label: 33P; blunt
T2 sequence: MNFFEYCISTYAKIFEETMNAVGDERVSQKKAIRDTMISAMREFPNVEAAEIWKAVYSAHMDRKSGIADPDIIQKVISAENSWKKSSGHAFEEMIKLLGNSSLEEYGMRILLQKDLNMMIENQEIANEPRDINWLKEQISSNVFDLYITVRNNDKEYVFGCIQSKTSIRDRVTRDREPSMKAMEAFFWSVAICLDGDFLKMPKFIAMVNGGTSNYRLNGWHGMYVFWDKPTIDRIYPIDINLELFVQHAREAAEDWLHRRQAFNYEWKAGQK

BsaWI E128A&R130A = molecular target: T3, BsaWI E128A&R130A (UniProt Q6UQ65 1-272, E128A;R130A); conditions: protein: recombinant; chain copies: 2; label: 33P; blunt
T3 sequence: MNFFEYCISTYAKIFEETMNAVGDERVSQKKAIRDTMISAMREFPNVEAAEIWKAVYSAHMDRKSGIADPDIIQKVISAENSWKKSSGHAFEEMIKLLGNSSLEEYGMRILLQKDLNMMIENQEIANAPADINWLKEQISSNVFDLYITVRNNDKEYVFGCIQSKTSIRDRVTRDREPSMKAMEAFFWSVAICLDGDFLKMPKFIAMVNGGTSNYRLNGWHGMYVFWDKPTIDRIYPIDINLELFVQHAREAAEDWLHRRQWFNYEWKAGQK

BsaWI R259A = molecular target: T4, BsaWI R259A (UniProt Q6UQ65 1-272, R259A); conditions: protein: recombinant; chain copies: 2; label: 33P; blunt
T4 sequence: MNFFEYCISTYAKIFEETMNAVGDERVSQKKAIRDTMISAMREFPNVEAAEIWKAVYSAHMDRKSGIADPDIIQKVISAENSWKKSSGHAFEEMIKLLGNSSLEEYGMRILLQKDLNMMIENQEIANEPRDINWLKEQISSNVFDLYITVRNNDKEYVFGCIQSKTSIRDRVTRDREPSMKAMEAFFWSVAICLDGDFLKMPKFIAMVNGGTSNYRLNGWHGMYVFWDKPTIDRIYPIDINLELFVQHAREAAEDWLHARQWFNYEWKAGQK

BsaWI R130A&R259A = molecular target: T5, BsaWI R130A&R259A (UniProt Q6UQ65 1-272, R130A;R259A); conditions: protein: recombinant; chain copies: 2; label: 33P; blunt
T5 sequence: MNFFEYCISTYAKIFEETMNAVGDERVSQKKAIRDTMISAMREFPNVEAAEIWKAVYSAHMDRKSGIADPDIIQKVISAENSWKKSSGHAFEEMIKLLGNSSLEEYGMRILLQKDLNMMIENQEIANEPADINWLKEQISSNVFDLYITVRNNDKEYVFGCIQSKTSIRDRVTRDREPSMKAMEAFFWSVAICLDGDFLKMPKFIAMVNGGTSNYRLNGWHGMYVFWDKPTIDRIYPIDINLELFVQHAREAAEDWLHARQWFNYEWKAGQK

BsaWI R259A&W262A = molecular target: T6, BsaWI R259A&W262A (UniProt Q6UQ65 1-272, R259A;W262A); conditions: protein: recombinant; chain copies: 2; label: 33P; blunt
T6 sequence: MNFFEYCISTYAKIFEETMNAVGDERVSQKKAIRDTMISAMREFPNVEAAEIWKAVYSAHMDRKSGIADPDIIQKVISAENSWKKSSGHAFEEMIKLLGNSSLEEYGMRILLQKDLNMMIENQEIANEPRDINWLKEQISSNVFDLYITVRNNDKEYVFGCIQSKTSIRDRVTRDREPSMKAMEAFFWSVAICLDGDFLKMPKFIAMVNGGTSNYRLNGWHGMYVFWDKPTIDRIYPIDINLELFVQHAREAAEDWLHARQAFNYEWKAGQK

BsaWI E128A = molecular target: T7, BsaWI E128A (UniProt Q6UQ65 1-272, E128A); conditions: protein: recombinant; chain copies: 2; label: 33P; blunt
T7 sequence: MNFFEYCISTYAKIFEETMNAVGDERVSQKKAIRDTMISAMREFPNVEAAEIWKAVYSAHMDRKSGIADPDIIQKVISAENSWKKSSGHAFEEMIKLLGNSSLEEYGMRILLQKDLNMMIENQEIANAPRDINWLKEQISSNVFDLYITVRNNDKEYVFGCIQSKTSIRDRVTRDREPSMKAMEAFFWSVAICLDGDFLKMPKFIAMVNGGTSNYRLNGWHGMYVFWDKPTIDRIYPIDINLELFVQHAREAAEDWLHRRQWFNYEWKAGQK

B1: SP (dsDNA)
DNA 1: GCCTTTCGGTTTACCGGTGTCATTCCGCTG
DNA 2: CAGCGGAATGACACCGGTAAACCGAAAGGC
Kd (BsaWI D145A): 17 ± 4.7 nM | Kd (BsaWI W262A): 2.7 ± 0.8 nM | Kd (BsaWI E128A&R130A): 2.1 ± 0.5 nM | Kd (BsaWI R259A): 2 ± 0.3 nM | Kd (BsaWI R130A&R259A): 2.7 ± 0.5 nM | Kd (BsaWI R259A&W262A): 2.6 ± 0.6 nM | Kd (BsaWI E128A): 2.19 ± 0.4 nM
